Results on 3 substances are retold here after paper PMC9393700.

Usually stoichiometry N stands for the number of molecules, sites or subunits per partner or assembly.

What all share (experiment): SEC; Superdex S200 16/600 column; purified F proteins (Figure 2A)
(In gel filtration, larger molecules generally elute earlier.)

Assay [1] addresses RSV A2 F DsCav1 (trimer) (respiratory syncytial virus A2).
Assay [2] concerns the target RSV head hMPV stem construct 1 (RHMS-1) (respiratory syncytial virus (RSV-A in Figure 1B) | human metapneumovirus (hMPV-A1 in Figure 1B)) (UniProt P03420).
The target of assay [3] is trypsin-treated hMPV B2 F (human metapneumovirus B2).

Substance “RSV A2 F DsCav1 (trimer) (natural protein)” returned a stoichiometry N in assay [1] of 3.

Turning to “RSV head hMPV stem construct 1 (RHMS-1) (from UniProt P03420 1-25; P03420 55-314)”, the stoichiometry N in assay [2] came to 3.

Turning to “trypsin-treated hMPV B2 F (natural protein)”, the stoichiometry N in assay [3] is 3.
